Here are results for 14 sequences from the DeepSol protein solubility set.

The data set in a line: soluble on expression in E. coli; label from the status in PepcDB or PDB records.
Regarding “MAHHHHHHMDAFRSLTIGTKFSAARNEEAAKLFRNAGKDKGSHGFPDAIGADGAVTLENASDMGSSSLSVPPPSATLNLFGRPTRSHADANAHLGVSAGSDAAAAANTASENKALKAITFKKKRNIWRRNDLQVTGTDLPAPIEHFSDLVRPPLNVPRNVVNNLFARQHKVPTPIQMQAISSLIHHRDVLACAPTGSGKTIAFLVPLFALLKAPDASCGVRALIVTPTAELAQQIEREAFFLMKGQRWKFVQHGQTTKKKDIFIATPGRILSLLEQKLLDLSNVQYLVFDEGDRLWDSRTDFLTVIDRILTACTRTDKVVSLFTATLSEKVEAAARSVMGADPVRIIVHGRRSANTHVKQRLVFCGNELGKVVAMRNLVREGITPPVLVFVQSVERSKELYEEIRMEGLHMAIMHAKMTVEQREETVLQFRLGKIWVLVTTELLARGIDFKNVGTVINFDFPATVDSYIHRVGRTGRAGKEGTAITFFTEDDKERLPPIAKVMQDSGNAVEDWILGIKVDRSTRRRLERTTPQRTIVSTRKRMLVAQQRVQRQYRRLEAEKAAKQASKRSKGCGDCDRDDGDDSTDDA”, the “soluble on expression in E. coli” value is “not soluble”.
As to “GAMGSMSVSEANGTETIKPPMNGNPYGPNPSDFLSRVNNFSIIESTLREGEQFANAFFDTEKKIQIAKALDNFGVDYIELTSPVASEQSRQDCEAICKLGLKCKILTHIRCHMDDARVAVETGVDGVDVVIGTSQYLRKYSHGKDMTYIIDSATEVINFVKSKGIEVRFSSEDSFRSDLVDLLSLYKAVDKIGVNRVGIADTVGCATPRQVYDLIRTLRGVVSCDIECHFHNDTGMAIANAYCALEAGATHIDTSILGIGERNGITPLGALLARMYVTDREYITHKYKLNQLRELENLVADAVEVQIPFNNYITGMCAFTHKAGIHAKAILANPSTYEILKPEDFGMSRYVHVGSRLTGWNAIKSRAEQLNLHLTDAQAKELTVRIKKLADVRTLAMDDVDRVLREYHADLSDADRITKEASA”, the “soluble on expression in E. coli” value is “soluble”.
With “GPGSMTKGGSSVAEDAQLRAADTFEEAQTLLDVMLKQFHTMERNRTDPFISKVVIAGELKEDSSRPFSQVFQELIDAATVKSRNPLSEQSCPPSPPSGIFLDYGTHFVGLFEAVDRYVAELLILMDAECKSTEEPIFSDVRVLYLNDDVVPLGGQYVCFVDKIPGVVAQSEKVDVPEDVIAEMVADDVRKLTKLLSLVLSEGVSKRKNFLDNARTSHPTLFPNTSSLKMYVKSDLFLTLDEYHRVFGKLPELVRDVEVNHPVDQPLKY”, the “soluble on expression in E. coli” value was “soluble”.
As for “MKVNKFITIYKDIAQQIEGGRWKAEEILPSEHELTAQYGTSRETVRKALHMLAQNGYIQKIRGKGSVVLNREKMQFPVSGLVSFKELAQTLGKETKTTVHKFGLEPPSELIQKQLRANLDDDIWEVIRSRKIDGEHVILDKDYFFRKHVPHLTKEICENSIYEYIEGELGLSISYAQKEIVAEPCTDEDRELLDLRGYDHMVVVRNYVFLEDTSLFQYTESRHRLDKFRFVDFARRGK”, the “soluble on expression in E. coli” value is given as “soluble”.
With “AKQDYYEILGVSKTAEEREIRKAYKRLAMKYHPDRNQGDKEAEAKFKEIKEAYEVLTDSQKRAAYDQYGHAAFEQGGMGGGGFGGGADFSDIFGDVFGDIFGGGRGR”, the “soluble on expression in E. coli” value is on record as “soluble”.
With “MGSDKIHHHHHHMEFLIYSLPEEVLREEMLGNFSVALKLIDDFLKKDLPLLQRERLIYEKERIERLLEDYPFTEKEAMEKMREMFEGFSEGEFQYLMNEGVLDYIVVEGEKRFERRFFHNLAFVRSEYRERLRKDERSEKARRILHERLERLIKGEDPKRYRIRARITLKLKETSSKHRVWLPFPKESLQIESVKLLRTSHKSYYISPNDVPQRTIYFEGEDSTFFVEFEYIVREWVNHVDPERVSEKVAGFEEFLKEEPPHIVFTPKLRWLTQTVVGSEVNPYLKAKRIYDWITLNVRYSYVKPYALYENITDFVVNNLKGDCGFQALLFITMCRIAGVPARWQSGWYINPIFGSPHDWALFYVEPYGWLPADLSFGGARRDNESFRSFYFGNLDGFRMVANDGFMKDFDPKTRFVRSDPTDNQVGEAESEEKRLPFESTIEVISFEEV”, the “soluble on expression in E. coli” value is listed as “not soluble”.
For “MGSDKIHHHHHHVSLIQEYKKQQNWRDWERYLESIPYSGEDTVIDLGCSVGDVSQLFSLRVKNVIGIDVNQDFIDICESQKSVNQTFICSDFLSLDSQLIESTNGIWSSFSLSYLRNPLDFLIYLNASMKQGGWIALLDISCFISGNLAKKSQYYEKVLKFELESYKSGIYDFDFGSKMLSMLQNAGFDIVYLDNDVTDPELNFTGAASAEIIHGWAARLNRMNRLKDEIGAEYPDFCNELLANLSSDTHEKRQNVRFIVARKPITSVNKATDSCAGVHSQ”, the “soluble on expression in E. coli” value was “not soluble”.
On to “HHHHHHMVRAIDEDCSQYEPIPGSQKAALGYNILTQEDAQSVYDASYYGGQCETVYNGEWRELRYDSTCERLYYGDDEKYFRKPYNFLKYHFEALADTGISSEFYDNANDLLSKVKKDKSDSFGVTIGIGPAGSPLLVGVGVSHSQDTSFLNELNKYNEKKFIFTRIFTKVQTAHFKMRKDDIMLDEGMLQSLMELPDQYNYGMYAKFINDYGTHYITSGSMGGIYEYILVIDKAKMESLGITSRDITTCFGGSLGIQYEDKINVGGGLSGDHCKKFGGGKTERARKAMAVEDIISRVRGGSSGWSGGLAQNRSTITYRSWGRSLKYNPVVIDFEMQPIHEVLRHTSLGPLEAKRQNLRRALDQYLM”, for which the “soluble on expression in E. coli” value is on record as “soluble”.
Take “AAEVGDDFLGDFVVGERVWVNGVKPGVVQYLGETQFAPGQWAGVVLDDPVGKNDGAVGGVRYFECPALQGIFTRPSKLTRQP”: the “soluble on expression in E. coli” value is “soluble”.
As for “MSLTEHALSNARIVLEDDIILGSVLIRDGKIADISEGASKTGEDLEGDFLIPGLVELHTDHLEQHYSPRPGVIWDKIAAIQAHDAQVASSGITTVFDCLRLGSDEDGGFKKGEMREMADAIEAAADQNRLRADHLLHLRCEVASADVLEHFEDFETDPRVRLISLMDHSPGQRQFQSMDQYIFYYQKKRGLSDEAFAEFVRRRQAASAEYSAKHRDYLAASCAKRGITVASHDDATEAHVGEAIGHGVKLAEFPTSVEAAKASHSAGMSVLMGAPNIVRGKSHSGNIAARDLAEIGVLDVLSSDYVPFSLLFAPFLLADQVEAISLSEALRMVTATPARTVGLVDRGRIATGLRADLVRVHREDGVPVARSVWRQGKRVAEGHHHHHH”, the “soluble on expression in E. coli” value is “not soluble”.
Consider “MSEAHPPELKKFMDKKLSLKLNGGRHVQGILRGFDPFMNLVVDDTIEMAPGGQMNTIGMVVIRGNSIIMLEALERV”, for which the “soluble on expression in E. coli” value was “soluble”.
Turning to “MLIFGFIGLFFLNIFSLHAQGIVTNKDAQEEFKWALNSYNNGIYDDALLSFKKILSFDPNNLDYHFWTGNVYYRLGYVEEALMEWRNLKDQGYKVPYLRHLISTIEQRRGIFSNYELNFKKLVKVASLDNSIYKRPHGYQITSLRADKYGGYYAANFVGNEILYFDVNNNVNALVKDGFSYLKSPYDVIEANNLLYVTLYSSDEIGVYDKVLGVKRKSIGNKGTKDGELLAPQYMAIDKRNYIYVSEWGNKRVSKFGLEGDFILHFGSRTSGYKGLLGPTGVTYLNENIYVADSLRNTIEVFDTSGNHLYSVFTSIEGIEGLSSDFVGNNVIVSSKDGVYKYSIAKKTITKILKADKMNSKISSSILDANNQMIVSDFNNAKVSVYKSDASLYDSLNVDVRRIIRLGGPKIYVELNVSSKSGLPVVGLKSENFSISNENYYIVNPKVAYNVNASKDINIAVVFDKSSYMKKYDTDQIVGLNALMELSKNKNFSFINATSVPIIDNIESLTNSIRNTSSLGPYSTDAVKTDVSLKLAGSGLMSKSSRRAVVYFSGGILNRKAFEKYSLDTIVSYYKNNDIRFYLILFGNDPINSKLQYLVNETGGAVIPFSSYEGVSKVYDLILEQKTGTYLLEYYYPGPQEPNKYFNLSVEANINQQTGRGEFAYFINLEHHHHHH”, the “soluble on expression in E. coli” value was “not soluble”.
For “MGGGHHEPFKIPNYSIYSNFRDFPQLAQHEKRLAQIGLKDPWIRNYVYLYDRKYPHVVGQWAHFKKLILPGWKAGVAFTAALIFVEEAYQYKTHGTTSWDGHH”, the “soluble on expression in E. coli” value is “not soluble”.
For “MPLSYYEKGIMYKRKNFMGPAVKCFEEARKLEEKVGSKASLELAKIYAYFKDYEEAYKYCKEAISKSNYIEAYYLMVRILLLSNTPINEILKKAGKVKIHNSLLADIFCFEGNYEVALKIIDTCLKEDEVTRDLELIKIKCLLKLKQYDKCKDYIDNFSQSYLYFFKIRMYKVICCVLLEEYRLAWKIIDEFDYKKLSLYNKNKLKAYINFYNAALDIRGITPHENDEEYYSCIFEIIDILLATKEIKCLKKLIQTISKYDGGYLELAELYSNYGYVSEAKKLIVLYIKKFEVVNNKMIYILQKLEHHHHHH”, the “soluble on expression in E. coli” value is given as “not soluble”.
